Laboratory results as given in patent US20160169885A1.

Legend:
[1] = molecular target: Ac-N-Asp-Gly-Asp-Ala-Gly-Tyr-Ala-Gly-Leu-Arg-Gly-Ala-Gly-diamino-ethyl-Bodipy FL; assay: cell-based or functional assay
[2] = system: Ac-N-Asp-Gly-Asp-Ala-Gly-Tyr-Ala-Gly-Leu-Arg-Gly-Ala-Gly-diamino-ethyl-Bodipy FL

| detection limit of the cleavage products in whole rat blood (reaction in 1×PBS, then mixed with inhibitor-treated blood), agarose gel [1] [nM] | Substance | cleavage of the substrate, agarose gel electrophoresis, 1×PBS [2] |
| --- | --- | --- |
| 50 | bovine pancreatic trypsin (from UniProt P00760 24-246) (enzyme) |  |
|  | bovine pancreatic α-chymotrypsin | after cleavage by α-chymotrypsin, migrates as two bands toward the cathode, representing a primary ... and a secondary ... α-chymotrypsin cleavage product |
